US20250388666A1 (BRIGHAM AND WOMEN S HOSPITAL, published 2025)

T1: CEACAM1 on transfected HeLa cells (Homo sapiens (Human), UniProt P13688 35-526)
T1 construct: also called C1
T1 sequence: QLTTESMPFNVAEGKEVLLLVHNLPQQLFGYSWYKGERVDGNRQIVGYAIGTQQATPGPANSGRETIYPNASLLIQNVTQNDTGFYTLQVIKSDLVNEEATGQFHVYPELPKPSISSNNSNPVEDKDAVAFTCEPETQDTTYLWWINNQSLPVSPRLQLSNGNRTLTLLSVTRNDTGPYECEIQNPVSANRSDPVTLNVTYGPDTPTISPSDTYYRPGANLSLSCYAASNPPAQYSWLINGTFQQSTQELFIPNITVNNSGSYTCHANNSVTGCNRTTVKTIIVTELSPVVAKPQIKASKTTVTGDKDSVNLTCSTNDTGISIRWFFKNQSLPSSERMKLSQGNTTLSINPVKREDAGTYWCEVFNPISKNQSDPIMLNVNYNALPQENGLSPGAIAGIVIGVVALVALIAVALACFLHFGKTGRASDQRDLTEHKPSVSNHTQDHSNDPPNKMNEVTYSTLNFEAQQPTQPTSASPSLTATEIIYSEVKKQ

T2: CEACAM5 on transfected HeLa cells (UniProt P06731 35-685)
T2 construct: whole, on cells; also called C5
T2 sequence (looked up): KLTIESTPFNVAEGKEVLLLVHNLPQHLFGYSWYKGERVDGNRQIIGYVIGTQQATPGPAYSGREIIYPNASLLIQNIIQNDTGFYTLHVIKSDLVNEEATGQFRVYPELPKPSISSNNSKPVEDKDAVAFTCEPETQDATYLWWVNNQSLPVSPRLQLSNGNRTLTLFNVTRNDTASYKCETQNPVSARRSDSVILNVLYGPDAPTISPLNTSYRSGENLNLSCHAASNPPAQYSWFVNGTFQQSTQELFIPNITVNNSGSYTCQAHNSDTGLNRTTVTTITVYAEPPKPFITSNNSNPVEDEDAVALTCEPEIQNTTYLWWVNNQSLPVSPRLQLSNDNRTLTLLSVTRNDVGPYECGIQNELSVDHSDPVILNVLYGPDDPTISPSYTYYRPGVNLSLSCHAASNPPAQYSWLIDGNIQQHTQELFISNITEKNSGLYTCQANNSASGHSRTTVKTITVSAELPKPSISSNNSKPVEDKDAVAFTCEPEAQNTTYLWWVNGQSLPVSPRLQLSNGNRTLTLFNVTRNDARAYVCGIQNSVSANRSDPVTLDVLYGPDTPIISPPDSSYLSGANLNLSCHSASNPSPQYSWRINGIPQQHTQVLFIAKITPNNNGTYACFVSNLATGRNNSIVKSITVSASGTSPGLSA

T3: CEACAM5 (Sino Biological) (human, UniProt P06731 35-685)
T3 construct: also called hCEACAM5
T3 sequence (looked up): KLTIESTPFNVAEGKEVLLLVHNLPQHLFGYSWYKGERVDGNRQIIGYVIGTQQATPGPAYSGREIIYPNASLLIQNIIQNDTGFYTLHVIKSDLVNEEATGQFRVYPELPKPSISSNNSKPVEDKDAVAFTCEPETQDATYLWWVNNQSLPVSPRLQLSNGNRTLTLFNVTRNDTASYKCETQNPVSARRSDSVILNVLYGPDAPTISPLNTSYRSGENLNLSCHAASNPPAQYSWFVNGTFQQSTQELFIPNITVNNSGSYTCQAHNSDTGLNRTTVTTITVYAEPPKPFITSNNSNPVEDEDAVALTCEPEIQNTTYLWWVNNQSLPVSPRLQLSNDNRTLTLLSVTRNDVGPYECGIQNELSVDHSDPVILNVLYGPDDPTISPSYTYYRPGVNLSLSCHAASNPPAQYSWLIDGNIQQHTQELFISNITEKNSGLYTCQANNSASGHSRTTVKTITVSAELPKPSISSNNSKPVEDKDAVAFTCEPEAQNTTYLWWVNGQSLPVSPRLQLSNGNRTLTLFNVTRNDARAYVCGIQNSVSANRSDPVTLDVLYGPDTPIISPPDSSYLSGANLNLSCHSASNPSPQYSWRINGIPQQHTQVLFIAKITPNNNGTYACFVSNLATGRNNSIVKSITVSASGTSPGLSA

T4: CEACAM6 (Sino Biological) (human, UniProt P40199 35-320)
T4 construct: also called hCEACAM6
T4 sequence (looked up): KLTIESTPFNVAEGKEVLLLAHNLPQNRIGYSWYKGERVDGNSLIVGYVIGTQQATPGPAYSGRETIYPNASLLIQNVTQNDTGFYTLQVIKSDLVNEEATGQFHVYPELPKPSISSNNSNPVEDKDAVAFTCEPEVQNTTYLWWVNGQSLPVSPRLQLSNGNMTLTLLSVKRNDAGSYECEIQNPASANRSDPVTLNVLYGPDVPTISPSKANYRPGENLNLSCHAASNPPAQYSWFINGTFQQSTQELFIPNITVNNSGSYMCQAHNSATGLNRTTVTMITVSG


Assays:
[1] = biological target: T1, CEACAM1 on transfected HeLa cells; experiment: flow cytometry, transfected HeLa
Method: (§1) Binding selectivity of the selected antibody variants was assessed by flow cytometry using HeLa cells transfected with vectors expressing CEACAM1, CEACAM5, and CEACAM6, respectively. The resulting cells were used for flow cytometry experiments and were cultured at 37° C., 5.0% CO₂ in Dulbecco's modified Eagle's medium supplemented with 10% fetal bovine serum, penicillin (100 U/ml) and dihydrostreptomycin ([…]). Cell lines were stained with the indicated antibodies followed by fluorochrome-conjugated monoclonal antibody specific for the indicated antibody isotypes such as human IgG4 or mouse IgG1 together with viable dye (DAPI). Data were acquired with a Cytoflex flow cytometer ([…]) and analyzed with FlowJo software (TreeStar, V7.6.5 for Windows).

[2] = biological target: T2, CEACAM5 on transfected HeLa cells; experiment: flow cytometry, transfected HeLa
Method: as §1

[3] = biological target: T3, CEACAM5 (Sino Biological); experiment: binding ELISA on plate-coated CEACAM (0.5 µg/mL); antibody at 1.67, 0.062 and 0.0069 µg/mL; signal as % of parent IgG on CEACAM1 at 1.67 µg/mL on the same plate
[4] = biological target: T4, CEACAM6 (Sino Biological); experiment: as above

relative fluorescence intensity [1] | relative fluorescence intensity [2] | binding result [3] | binding result [4] | Binder
84.2 | 0.42 | – | – | chimeric parental antibody VH0/Vκ0 (antibody, IgG4, V domains shown, IgG4 (S241P), kappa; also called Chimera; chimeric antibody) VH: EVQLVESGGGFVKPGGSLKLSCAASGFSFSDYYLYWVRQTPEKRLEWVATISVGGGNTSYPDSVKGRFTISRDNAKNNLYLQMSSLKSEDTAMYYCTRGLYYGPAWFAYWGQGTLVTVSA VL: not shown
89.3 | 0 | no binding (tested: 1.67 µg/mL) | no binding (tested: 1.67 µg/mL) | VH2 N56Q/Vκ4 S27(f)A IgG (antibody, V domains shown, IgG4 S241P, kappa; also called Parent; Parent IgG) VH: EVQLLESGGGLVQPGGSLRLSCAASGFSFSDYYLYWVRQAPGKGLEWVATISVGGGQTSYADSVKGRFTISRDNSKNTLYLQMNSLRAEDTAMYYCTRGLYYGPAWFAYWGQGTLVTVSS VL: not shown
